Results on one substance are retold here after patent US8637016.

For this assay, the target named is EphA3 antigen (Homo sapiens (Human)) (UniProt P29320). In words: ELISA on EphA3 antigen. (ELISA stands for enzyme-linked immunosorbent assay.)
Sequence of UniProt P29320 (P29320 21-541 limits assumed, form in doubt): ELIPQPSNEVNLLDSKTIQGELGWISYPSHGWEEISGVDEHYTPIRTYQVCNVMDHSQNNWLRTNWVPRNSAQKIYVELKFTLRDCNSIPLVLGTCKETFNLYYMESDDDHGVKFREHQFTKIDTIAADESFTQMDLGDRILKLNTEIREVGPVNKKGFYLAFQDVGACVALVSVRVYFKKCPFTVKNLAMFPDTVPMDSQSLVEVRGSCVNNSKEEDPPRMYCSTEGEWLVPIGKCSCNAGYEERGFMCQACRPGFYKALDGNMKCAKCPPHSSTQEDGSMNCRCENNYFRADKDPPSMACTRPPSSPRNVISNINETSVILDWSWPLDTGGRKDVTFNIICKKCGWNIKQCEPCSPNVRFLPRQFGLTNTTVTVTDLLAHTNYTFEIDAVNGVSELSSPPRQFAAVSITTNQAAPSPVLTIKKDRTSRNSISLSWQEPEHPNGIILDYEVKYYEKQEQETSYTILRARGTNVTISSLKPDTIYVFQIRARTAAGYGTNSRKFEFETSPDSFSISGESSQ

With monoclonal antibody IIIA4, the AFFINITY turned out to be 2.5 nM.
